Data from patent publication US8822165B2, “Method for producing cAMP using chimeric olfactory receptor” (Panasonic Corporation, priority 2010, dated 2014).

B1: chimera2: EC1-IC1 domains of the β1AR, TM2-TM7 domains of the mOREG, IC4 domain of the β1AR (protein)
chain: MGAGALALGASEPCNLSSAAPLPDGAATAARLLVLASPPASLLPPASEGSAPLSQQWTAGMGLLLALIVLLIVVGNVLVIVAIAKTPRLQTLTNLTRPMYFFLSHLSFVDFCYSSIVAPKMLVNLVTMNRGISFVGCLVQFFFFCTFVVTESFLLGVMAYDRFVAIRNPLLYTVAMSQRLCAMLVLGSYAWGVVCSLILTCSALNLSFYGFNMINHFFCEFSSLLSLSRSDTSVSQLLLFVFATFNEISTLLIILLSYVLIVVTILKMKSASGRRKAFSTCASHLTAITIFHGTILFLYCVPNSKNSRHTVKVASVFYTVVIPMLNPLIYSLRNKSRDFRKAFQRLLCCARRAACRRRAAHGDRPRASGCLARAGPPPSPGAPSDDDDDDAGATPPARLLEPWAGCNGGTTTVDSDSSLDEPGRQGFSSESKV
modifications: chimera 2
B2: Rho-mOREG: mouse olfactory receptor for eugenol with N-terminal Rho tag (protein)
chain: MNGTEGPNFYVPFSNKTGVVMTLSDGNHSGAVFTLLGFSDYPELTIPLFLIFLTIYSITVVGNIGMIVIIRINPKLHIPMYFFLSHLSFVDFCYSSIVAPKMLVNLVTMNRGISFVGCLVQFFFFCTFVVTESFLLGVMAYDRFVAIRNPLLYTVAMSQRLCAMLVLGSYAWGVVCSLILTCSALNLSFYGFNMINHFFCEFSSLLSLSRSDTSVSQLLLFVFATFNEISTLLIILLSYVLIVVTILKMKSASGRRKAFSTCASHLTAITIFHGTILFLYCVPNSKNSRHTVKVASVFYTVVIPMLNPLIYSLRNKDVKDTVKKIIGTKVYSS
modifications: Rho-mOREG
notes: mouse olfactory receptor for eugenol with N-terminal Rho tag
B3: Rho-myc-mOREG: mouse olfactory receptor for eugenol with N-terminal Rho tag and myc epitope tag (protein)
chain: MNGTEGPNFYVPFSNKTGVVEQKLISEEDLEFMTLSDGNHSGAVFTLLGFSDYPELTIPLFLIFLTIYSITVVGNIGMIVIIRINPKLHIPMYFFLSHLSFVDFCYSSIVAPKMLVNLVTMNRGISFVGCLVQFFFFCTFVVTESFLLGVMAYDRFVAIRNPLLYTVAMSQRLCAMLVLGSYAWGVVCSLILTCSALNLSFYGFNMINHFFCEFSSLLSLSRSDTSVSQLLLFVFATFNEISTLLIILLSYVLIVVTILKMKSASGRRKAFSTCASHLTAITIFHGTILFLYCVPNSKNSRHTVKVASVFYTVVIPMLNPLIYSLRNKDVKDTVKKIIGTKVYSS
modifications: Rho-myc-mOREG
B4: chimera1: IC4 domain of the Rho-myc-mOREG is substituted with the IC4 domain of the beta-1 adrenergic receptor (protein)
chain: MNGTEGPNFYVPFSNKTGVVEQKLISEEDLEFMTLSDGNHSGAVFTLLGFSDYPELTIPLFLIFLTIYSITVVGNIGMIVIIRINPKLHIPMYFFLSHLSFVDFCYSSIVAPKMLVNLVTMNRGISFVGCLVQFFFFCTFVVTESFLLGVMAYDRFVAIRNPLLYTVAMSQRLCAMLVLGSYAWGVVCSLILTCSALNLSFYGFNMINHFFCEFSSLLSLSRSDTSVSQLLLFVFATFNEISTLLIILLSYVLIVVTILKMKSASGRRKAFSTCASHLTAITIFHGTILFLYCVPNSKNSRHTVKVASVFYTVVIPMLNPLIYSLRNKDFRKAFQRLLCCARRAACRRRAAHGDRPRASGCLARAGPPPSPGAPSDDDDDDAGATPPARLLEPWAGCNGGTTTVDSDSSLDEPGRQGFSSESKV
modifications: chimera 1
notes: IC4 domain of the Rho-myc-mOREG is substituted with the IC4 domain of the beta-1 adrenergic receptor

Legend:
HEK293T cells [1] = assay: cAMP production by mOREG-derived receptors expressed in HEK293T cells, eugenol as agonist (Experiment 1); type: cell-based
Description: Subsequently, the HEK293T cells were transfected with the above-mentioned three plasmids by a lipofection method. The HEK293T cells were incubated for 48 hours, and the β1AR consisting of the protein represented by SEQ ID NO: 03 was expressed on the cell membrane of the HEK293T cell.
The abbreviation “IBMX” means 3-isobutyl-1-methylxanthine. The IBMX is one of the phosphodiesterase inhibitors. The IBMX stabilizes cAMP, which is unstable.
The expression was conducted similarly to that of the step 2 of the reference example 1 except that the plasmid (Rho-mOREG) was used instead of the plasmid (β1AR). In this way, the Rho-mOREG (SEQ ID NO: 34) was expressed on a cell membrane.
Based on the measured cAMP concentration, a concentration increase value was calculated in accordance with the following equation: (Concentration increase value)=(the cAMP concentration measured when the concentration of the eugenol was 300μM)−(the cAMP concentration measured when the concentration of the eugenol was 0 μM)

HEK293T cells [2] = assay: as above; type: cell-based; remark: listed apart in the source

Molecule | concentration increase value of the cAMP (HEK293T cells [1]; eugenol 300 μM minus eugenol 0 μM) [pmol/microgram] | cAMP concentration (HEK293T cells [1]; eugenol 0 μM) [pmol/µg] | concentration increase value of the cAMP (HEK293T cells [1]; eugenol 300 μM (Table 5)) | concentration increase value of the cAMP (HEK293T cells [2]; eugenol 30 μM) | concentration increase value of the cAMP (HEK293T cells [2]; eugenol 1000 μM) | concentration increase value compared with the other olfactory receptors derived from the mOREG (in words) (HEK293T cells [1]; eugenol 300 μM, Table 4) | concentration increase value of the cAMP compared with the other olfactory receptors (in words) (HEK293T cells [2]; regardless of the concentration of eugenol, Table 5)
B1 | 0.0002 | – | – | – | – | – | –
B2 | – | 0.00633 | 0.0018 | 0.0012 | 0.0026 | – | –
B3 | – | – | 0.0060 | 0.0028 | 0.0190 | – | –
B4 | – | – | 0.018 | 0.0065 | 0.031 | much greater | greater
